In patent publication US20160361384A1, “COSMETIC USE OF DERMICIDIN, OR ANALOGUES OR FRAGMENTS THEREOF, FOR THE PREVENTION AND/OR TREATMENT AND DIAGNOSIS OF OILY SKIN AND AESTHETIC SKIN DISORDERS ASSOCIATED THEREWITH” (L'OREAL, priority 2013, published 2016):
Ends that are not written are not given here.

B1: Recombinant human S100A7: recombinant human S100A7, Interchim (Protera), folding verified by NMR, batch EN00510-23/24/25 (protein, UniProt P31151 2-101, looked up)
Protein S100-A7: SNTQAERSIIGMIDMFHKYTRRDDKIEKPSLLTMMKENFPNFLSACDKKGTNYLADVFEKKDKNEDKKIDFSEFLSLLGDIATDYHKQSHGAAPCSGGSQ
B2: Lacritin: antimicrobial peptide Lacritin, synthesized by hybrogenics Ref: Hgx 2238v1 (peptide, UniProt Q9GZZ8 20-138, looked up)
Extracellular glycoprotein …: EDASSDSTGADPAQEAGTSKPNEEISGPAEPASPPETTTTAQETSAAAVQGTAKVTSSRQELNPLKSIVEKSILLTEQALAKAGKGMHGGVPGGKQFIENGSEFAQKLLKKFSLLKPWA
B3: RNASE 7: antimicrobial peptide RNASE 7, Human Plv extraction (heel horn) (protein, UniProt Q9H1E1 29-156, looked up)
Ribonuclease 7: KPKGMTSSQWFKIQHMQPSPQACNSAMKNINKHTKRCKDLNTFLHEPFSSVAATCQTPKIACKNGDKNCHQSHGAVSLTMCKLTSGKHPNCRYKEKRQNKSYVVACKPPQKKDSQQFHLVPVHLDRVL

Test system: P. acnes ATCC 6919
Assay type: cell-based, Propionibacterium acnes
Conditions: for MIC in μg/ml P. acnes: P. acnes ATCC 6919, 48 h incubation, optical density at 620 nm, concentration range 5 to 100 μg/ml, triplicate
Experimental: A micromethod was developed in a microplate.
The test principle is based on bringing decreasing concentrations of antimicrobial peptide (DCD-1L) into contact with an identical inoculum of P. acnes in a culture medium conducive to the growth of P. acnes. After incubation of the microplate for 48 h with the P. acnes strain, the optical density of the sample (620 nm) is measured and the results are expressed as percentage growth calculated relative to a growth control without antimicrobial peptide (negative control).
In addition, the inoculum is also brought into contact with triclosan in order to have a positive control.
The minimum inhibitory concentration or MIC is the lowest concentration of antibiotic that is sufficient to inhibit, in the laboratory, i.e. in vitro, the growth of a bacterial strain (bacterial colony).
The concentration range chosen ranged from 5 to 100 μg/ml.
Each concentration was tested in triplicate.
The inhibitory activity of the peptides was evaluated on the following microorganism: • P. acnes ATCC 6919 (Gram+bacterium)

Molecule	MIC in μg/ml P. acnes [µg/mL]	growth of P. acnes (in the presence of a low concentration of the peptide)
SSLLEKGLDGAKKAVGGLGKLGKDAVEDLESVGKGAVHDVKDVLDSVL [Dermcidin (DCD1L)]	<5	greatly inhibited
B1	>100	–
B2	100	–
B3	>100	–
